This is an account of results in publication PMC7334207, “Select amino acids in DGCR8 are essential for the UGU-pri-miRNA interaction and processing” (Communications Biology, 2020).

Substitutions are numbered along the chain they refer to.

Series [1] deals with the molecule itself. In words: SEC-MALS; molecular mass of the purified protein estimated with a Multi-Angle Light Scattering detector (miniDAWN TREOS, Wyatt Technology Corporation); compared with the theoretical mass of a dimer.
In series [2] the target is T1, G478 (Rhed) (Homo sapiens, UniProt Q8WYQ5 285-478).
T1 sequence: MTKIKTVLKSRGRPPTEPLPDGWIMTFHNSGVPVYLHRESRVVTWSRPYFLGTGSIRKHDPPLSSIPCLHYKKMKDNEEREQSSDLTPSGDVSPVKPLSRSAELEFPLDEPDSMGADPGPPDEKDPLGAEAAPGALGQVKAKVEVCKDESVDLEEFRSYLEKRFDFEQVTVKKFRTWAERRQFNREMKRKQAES
In words: EMSA; 50 mM Tris-HCl pH 7.5, 250 mM NaCl, 10% glycerol, 0.2 mg/ml BSA, 1 mM DTT, 2 mM EDTA; 1 uM RNA in 10 uL; on ice 60 min; 4% native PAGE at 4 C, ethidium bromide. The conditions noted are these: protein: recombinant; (purified as for G4; theoretical dimer 44 kDa implies no GFP); chain copies: 2; hairpin.

Series [3] has as its target T2, G478del WT (Homo sapiens, UniProt Q8WYQ5 285-478, del370-429).
T2 sequence: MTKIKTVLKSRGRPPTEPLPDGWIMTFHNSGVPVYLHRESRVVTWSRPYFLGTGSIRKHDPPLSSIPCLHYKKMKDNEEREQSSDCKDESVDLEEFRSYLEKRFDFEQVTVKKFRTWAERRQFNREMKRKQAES
Described as above. The conditions noted are these: protein: recombinant; chain copies: 2; hairpin.

Series [4] deals with T3, G478del WT-mut1 hybrid dimer (Homo sapiens, UniProt Q8WYQ5;Q8WYQ5 285-369+430-478;285-369+430-478, internal_change;W461A;A462G;E463Q;internal_change).
T3 sequence 1: T2 sequence
T3 sequence 2: T2 sequence with W117A, A118G, E119Q
Described as above. The note with it: protein: recombinant; tags: 10xHis on mut1 subunit; protein G on WT subunit removed by HRV 3C; copies: 1;1; hairpin.

In series [5] the target is T4, G478del-mut1 (Homo sapiens, UniProt Q8WYQ5 285-478, W461A;A462G;E463Q;del370-429).
T4 sequence: T2 sequence with W117A, A118G, E119Q
Described as above. The conditions noted are these: protein: recombinant; tags: 10xHis; chain copies: 2; hairpin.

B1: G460del, G478del with the 461–478 region deleted (domain or fragment, human, UniProt Q8WYQ5 285-460, looked up)
chain: MTKIKTVLKSRGRPPTEPLPDGWIMTFHNSGVPVYLHRESRVVTWSRPYFLGTGSIRKHDPPLSSIPCLHYKKMKDNEEREQSSDCKDESVDLEEFRSYLEKRFDFEQVTVKKFRT
notes: Lost its hemin-associating ability; source: E. coli, purified (as G478 and its variants)
The term stoichiometry N denotes a count of units in the complex or per binding partner. As for B1, the “stoichiometry N” value in series [1] is 2.

B2: G478del, G478 (DGCR8 amino acids 285–478) with the 370–429 region deleted (domain or fragment, human, UniProt Q8WYQ5 285-478, looked up)
chain: T2 sequence
notes: Associated with hemin; Theoretical dimer mass ~30 kDa as printed; also called G478del–WT; source: E. coli, purified (as described for G478)
B2: the “stoichiometry N” value in series [1] is 2.

B3: G478del-mut1, G478del with AGQ in the 461–463 region instead of WAE (domain or fragment, human, UniProt Q8WYQ5 285-478, looked up)
chain: T2 sequence with W117A, A118G, E119Q
notes: Associated with hemin; source: E. coli, purified (as described for G478del)
As for B3, the “stoichiometry N” value in series [1] is 2.

B4: G478, Rhed (RNA-binding heme domain) of DGCR8, amino acids 285–478 (domain or fragment, human, UniProt Q8WYQ5 285-478, looked up)
chain: T1 sequence
notes: Associated with hemin; also called Rhed dimer; G478 dimer; source: E. coli, purified (as described for the G4 fragments: Ni2+-agarose, SP-sepharose; then Superdex 200)
Take B4: the “stoichiometry N” value in series [1] is 2.
The Kd is the concentration at which binding is half-saturated. Turning to ACUGGAAGCCAAGAAAGAUGGGCUUUCAGU (structured_RNA) [10L10_noUGU], the Kd in series [2] is 8.57 ± 0.96 µM; in series [3], 16.8 ± 1.48 µM; in series [4], 11.5 ± 0.77 µM; in series [5] it was 13.8 ± 0.39 µM.
Take ACUGGAAGCUGUGAAAGAUGGGCUUUCAGU (structured_RNA) [10L10_UGU]: the Kd was determined as 3.43 ± 0.29 µM in series [2], 5.73 ± 0.39 µM in series [3], 5.43 ± 0.46 µM in series [4] and 9.03 ± 0.61 µM in series [5].
